The source of these data is patent US9988424 (DUKE UNIVERSITY, dated 2018).

Test [1] concerns the target AE.A244 V1V2 Tags (HIV-1). As to the kind of experiment: ELISA OD405nm, antibody at 33, 11.1 and 1.2 ug/ml.
For test [2], the target named is AE.A244 V1V2 Tags (HIV-1). Nature of the test: ELISA OD405nm, bar chart, antibody concentration not given.
Another test addresses T1, AE.A244 gp120 delta 11 (HIV-1).
T1 construct: also called E.A244gp120Δ11; AE.A244 Δ11 gp120
Nature of the test: ELISA. (ELISA stands for enzyme-linked immunosorbent assay.)

Test [3] has as its target AE.A244 V1V2 Tags (HIV-1). Nature of the test: ELISA.
Another test has as its target Con 6 gp120. Nature of the test: ELISA, OD405 at 10 ug/ml.
The next test concerns the target G.con gp140CF. Nature of the test: ELISA, OD405 at 10 ug/ml.
Test [4] has as its target T2, AE.97CNG2XF gp140CF (HIV-1).
T2 construct: also called E.97CNGX2F gp140CF
As to the kind of experiment: ELISA, OD405 at 10 ug/ml.

For a further test, the target named is T3, gp70 B.CaseA2 V1/V2 (HIV-1 V1V2 on murine leukemia virus gp70).
T3 construct: also called B.gp70CaseA2 V1/V2; gp70 B.CaseAV1V2
T3 chain: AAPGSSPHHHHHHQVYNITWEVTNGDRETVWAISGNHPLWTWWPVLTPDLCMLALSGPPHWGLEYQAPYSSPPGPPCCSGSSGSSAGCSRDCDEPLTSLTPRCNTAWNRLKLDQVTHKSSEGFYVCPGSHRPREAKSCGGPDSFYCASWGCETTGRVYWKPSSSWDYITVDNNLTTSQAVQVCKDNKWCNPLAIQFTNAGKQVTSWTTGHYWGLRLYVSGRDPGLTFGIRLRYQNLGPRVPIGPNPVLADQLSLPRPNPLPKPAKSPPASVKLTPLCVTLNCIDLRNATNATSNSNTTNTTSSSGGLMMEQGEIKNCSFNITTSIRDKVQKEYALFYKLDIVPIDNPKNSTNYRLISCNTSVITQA
Nature of the test: ELISA, OD405 at 10 ug/ml.

Test [5] addresses T4, B.HXB/BAL gp140CFI (HIV-1, UniProt P04578 33-680).
T4 construct: also called B.HxB/Ba gp140 CFI
Nature of the test: ELISA, OD405 at 10 ug/ml.

The target in the next test is B.con gp140CF. As to the kind of experiment: ELISA, OD405 at 10 ug/ml.
A further test concerns the target T5, A.9004SS V1/V2 tags.
T5 V1V2 tags construct: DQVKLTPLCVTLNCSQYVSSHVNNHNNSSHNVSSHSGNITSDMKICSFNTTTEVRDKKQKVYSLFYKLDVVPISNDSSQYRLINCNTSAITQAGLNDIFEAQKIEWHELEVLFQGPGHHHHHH
As to the kind of experiment: ELISA, OD405 at 10 ug/ml.

A further test addresses T6, gp70 C.1086 V1/V2 (HIV-1 V1V2 on murine leukemia virus gp70).
T6 construct: also called C.gp70 1086C V1V2; C.1086gp70V1V2
T6 chain: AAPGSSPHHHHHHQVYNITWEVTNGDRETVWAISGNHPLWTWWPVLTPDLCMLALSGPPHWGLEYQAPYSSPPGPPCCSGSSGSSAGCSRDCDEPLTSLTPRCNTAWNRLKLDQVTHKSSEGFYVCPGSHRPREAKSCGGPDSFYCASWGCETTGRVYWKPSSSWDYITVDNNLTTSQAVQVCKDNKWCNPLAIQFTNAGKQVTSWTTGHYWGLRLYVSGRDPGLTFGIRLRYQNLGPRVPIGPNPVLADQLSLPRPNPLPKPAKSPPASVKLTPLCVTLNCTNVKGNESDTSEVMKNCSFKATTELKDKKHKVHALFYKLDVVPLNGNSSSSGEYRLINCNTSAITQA
Nature of the test: ELISA, OD405 at 10 ug/ml.

For the next test, the target named is C.CAP206 gp140CF.12 (HIV-1). Nature of the test: ELISA, OD405 at 10 ug/ml.
Another test deals with T7, C.1086 gp140.
T7 construct: also called C.1086gp140C
As to the kind of experiment: ELISA, OD405 at 10 ug/ml.

In a further test the target is B.040 gp140C. Nature of the test: ELISA, OD405 at 10 ug/ml.
The target of another test is AE.con gp140CF. As to the kind of experiment: ELISA, OD405 at 10 ug/ml.
Test [6] deals with T8, SIV CPZ US-1 gp140CF (SIVcpz).
T8 construct: also called US-1 SIVCPZ gp140CF
T8 chain: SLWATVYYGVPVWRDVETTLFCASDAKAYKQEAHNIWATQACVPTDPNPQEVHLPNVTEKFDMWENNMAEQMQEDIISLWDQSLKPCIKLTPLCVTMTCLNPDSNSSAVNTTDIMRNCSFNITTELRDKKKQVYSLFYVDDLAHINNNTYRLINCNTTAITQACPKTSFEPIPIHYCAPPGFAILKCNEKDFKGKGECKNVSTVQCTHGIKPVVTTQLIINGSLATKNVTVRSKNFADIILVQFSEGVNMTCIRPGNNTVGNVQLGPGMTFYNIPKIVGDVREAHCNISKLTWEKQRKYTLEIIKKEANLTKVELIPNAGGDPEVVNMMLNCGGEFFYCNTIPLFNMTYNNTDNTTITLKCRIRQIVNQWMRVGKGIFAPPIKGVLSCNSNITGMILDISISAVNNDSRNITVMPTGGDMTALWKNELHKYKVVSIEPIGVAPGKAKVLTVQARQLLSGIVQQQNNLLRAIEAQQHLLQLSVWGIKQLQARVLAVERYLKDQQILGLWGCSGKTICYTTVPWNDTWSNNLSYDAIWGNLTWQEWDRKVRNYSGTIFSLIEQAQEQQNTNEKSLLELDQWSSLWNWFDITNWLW
Nature of the test: ELISA, OD405 at 10 ug/ml.

The target in a further test is T9, AE.A244 gD+ gp120 (HIV-1).
T9 construct: domain: gp120; also called AE.A244 gp120gD+
Nature of the test: ELISA.

A further test has as its target C.1086 gp120 (HIV-1). Nature of the test: ELISA.
For test [7], the target named is T2, AE.97CNG2XF gp140CF. As to the kind of experiment: ELISA.
The target of test [8] is T4, B.HXB/BAL gp140CFI. Nature of the test: ELISA.
Test [9] concerns the target T8, SIV CPZ US-1 gp140CF. Nature of the test: ELISA.
The target in the next test is B.9021 gp140C (HIV-1). As to the kind of experiment: ELISA.
A further test addresses T10, AE.92TH023 gp120 gD+ (HIV-1).
T10 construct: domain: gp120; also called AE.92TH023 gp12 gD+
As to the kind of experiment: ELISA.

Residue numbers refer to the chain shown, from its start.

B1: CH01 RUA 1 (antibody, V domains shown)
VH: EVQLVESGGGVVRPGGSLRLSCAASGFTFDDYGMSWVRQAPGKGLEWVSGINWNGGSTGYADSVKGRFTISRDNAKNSLYLQMNSLRAEDTALYYCARGTDYTIDDQGIRYQGSGTFWYFDLWGRGTLVTVSS
VL: not shown
On to B1, for which the binding result in the test with AE.A244 V1V2 Tags [1] is “binds”.

B2: CH01 RUA 2 (antibody, V domains shown)
VH: B1 VH with R110L
VL: not shown
As for B2, the binding result with AE.A244 V1V2 Tags [2] was “binds”.

B3: CH01 UA3 (antibody, V domains shown)
VH: B1 VH with Y95H, R110H, Q112Y, F117Y
VL: not shown
For B3, the figures for the concentration giving a half-maximal response (EC50) with AE.A244 gp120 delta 11 and with AE.A244 V1V2 Tags [3] were 9.3 nM and 18 nM, respectively. In addition, the binding result with Con 6 gp120, with G.con gp140CF, with AE.97CNG2XF gp140CF [4], in the test with gp70 B.CaseA2 V1/V2, with B.HXB/BAL gp140CFI [5] and with B.con gp140CF was “no binding (tested: 10 ug/ml)” throughout. The binding result with A.9004SS V1/V2 tags, with gp70 C.1086 V1/V2, with C.CAP206 gp140CF.12, with C.1086 gp140, with B.040 gp140C and with AE.con gp140CF was “no binding (tested: 10 ug/ml)” in each case. The binding result with SIV CPZ US-1 gp140CF [6] is listed as “no binding (tested: 10 ug/ml)”.

B4: HG107 (antibody, V domains shown)
VH: EVQLVESGGDLVQPGRSLRLSCAASGFTFDDYAMHWVRQAPGKGLEWISGISGNSGSRGYADSVKGRFTISRDNAKNSLYLQMNSLRAEDTALYYCATDGDRSGTTPLDHWGQGTRVTVSS
VL: SYELTQPPSVSVSPGQTARITCSGDALPKNYAYWYQQKSGQAPALVIYEDSKRPSGIPERFSGSSSGTMATLTISGAQVEDEADYYCYSTDSSGTPSFGTGTKVTVL
notes: also called mAb HG107
As for B4, the concentration for a half-maximal effect (EC50) (commonly the concentration needed to bring the measured effect to its halfway point) came to 0.03 µg/mL with AE.A244 gD+ gp120, 0.03 µg/mL with C.1086 gp120, 0.055 µg/mL in the test with AE.97CNG2XF gp140CF [7] and 0.04 µg/mL with AE.92TH023 gp120 gD+. The binding result in the test with B.HXB/BAL gp140CFI [8], with SIV CPZ US-1 gp140CF [9] and with B.9021 gp140C was “no binding” throughout.

B5: HG120 (antibody, V domains shown)
VH: EVQLVESGGGLVQPGGSLRLSCAASGFTFSSYAMRWVRQAPGKGLEWVSGISGSGGSTYYADSVKGRFTISRDNSKITLYLQMDSLRVEDTAVYYCATAPLSYDSSTDYWGQGTLVTVSS
VL: B4 VL with N30K, A44V, T95N, S97R, T100R, V104L
notes: also called mAb HG120
As to B5, the EC50 worked out at 0.02 µg/mL with AE.A244 gD+ gp120, 0.02 µg/mL with C.1086 gp120, 0.06 µg/mL in the test with AE.97CNG2XF gp140CF [7] and 0.02 µg/mL with AE.92TH023 gp120 gD+. Further, the binding result in the test with B.HXB/BAL gp140CFI [8], with SIV CPZ US-1 gp140CF [9] and with B.9021 gp140C was “no binding” throughout.
